Consider 19 molecules from EP4682166A1 (Guangzhou Enmai Biotechnology Co., Ltd, dated 2026).

Bounds are passed on as bounds.

The target of test [1] is T1, human NMI (N-myc Interacting protein), recombinant protein (human, UniProt Q13287 1-307, limits assumed).
T1 construct: Gene ID: 9111; also called hNMI; antigen
T1 sequence (looked up): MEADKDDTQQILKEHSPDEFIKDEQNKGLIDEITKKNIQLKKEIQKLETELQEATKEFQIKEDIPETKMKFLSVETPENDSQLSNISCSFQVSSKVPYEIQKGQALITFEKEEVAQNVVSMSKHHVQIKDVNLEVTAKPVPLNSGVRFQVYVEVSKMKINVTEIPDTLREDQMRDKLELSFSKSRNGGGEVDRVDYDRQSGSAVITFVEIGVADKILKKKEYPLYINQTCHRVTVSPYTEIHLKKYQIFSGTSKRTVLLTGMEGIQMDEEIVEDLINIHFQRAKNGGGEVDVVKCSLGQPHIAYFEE
The test can be described thus: ELISA EC50 against parent 94C4. A general note: ELISA stands for enzyme-linked immunosorbent assay.

Test [2] addresses T1, human NMI (N-myc Interacting protein), …. The test can be described thus: ELISA EC50 against parent 98G10.
Test [3] has the same target. The test can be described thus: ELISA EC50 against parent 39B4.

B1: 94C4 mutant D101E (VH) (antibody, V domains shown)
VH: QSLEESGGGLVQPEGSLTLTCKASGFDFSSNAMCWVRQAPGKGLEWIACISSASSGSSGSTYYASWAKGRFTISKTSSTTVTLQMTSLTAADMATYFCAREGYDLWGPGTLVTVSS
VL: QVLTQTPSSVSAAVGGTVTISCQSSPSVYNNYLSWFQQKPGQSPKLLIYRVSTLASGVPSRFSGSGSGTQFTLTISGVQCDDAATYYCAGGYDSASDTYVFGGGTEVVVK
As to B1, the “Fold decrease in affinity” value in test [1] is > 500 fold.

B2: 94C4 mutant D101K (VH) (antibody, V domains shown)
VH: QSLEESGGGLVQPEGSLTLTCKASGFDFSSNAMCWVRQAPGKGLEWIACISSASSGSSGSTYYASWAKGRFTISKTSSTTVTLQMTSLTAADMATYFCARKGYDLWGPGTLVTVSS
VL: QVLTQTPSSVSAAVGGTVTISCQSSPSVYNNYLSWFQQKPGQSPKLLIYRVSTLASGVPSRFSGSGSGTQFTLTISGVQCDDAATYYCAGGYDSASDTYVFGGGTEVVVK
B2: the “Fold decrease in affinity” value in test [1] was > 500 fold.

B3: 94C4 mutant D101S (VH) (antibody, V domains shown)
VH: QSLEESGGGLVQPEGSLTLTCKASGFDFSSNAMCWVRQAPGKGLEWIACISSASSGSSGSTYYASWAKGRFTISKTSSTTVTLQMTSLTAADMATYFCARSGYDLWGPGTLVTVSS
VL: QVLTQTPSSVSAAVGGTVTISCQSSPSVYNNYLSWFQQKPGQSPKLLIYRVSTLASGVPSRFSGSGSGTQFTLTISGVQCDDAATYYCAGGYDSASDTYVFGGGTEVVVK
B3: in test [1], the “Fold decrease in affinity” value is > 500 fold.

B4: 94C4 mutant S29D (VH) (antibody, V domains shown)
VH: QSLEESGGGLVQPEGSLTLTCKASGFDFDSNAMCWVRQAPGKGLEWIACISSASSGSSGSTYYASWAKGRFTISKTSSTTVTLQMTSLTAADMATYFCARDGYDLWGPGTLVTVSS
VL: QVLTQTPSSVSAAVGGTVTISCQSSPSVYNNYLSWFQQKPGQSPKLLIYRVSTLASGVPSRFSGSGSGTQFTLTISGVQCDDAATYYCAGGYDSASDTYVFGGGTEVVVK
With B4, in test [1], the “Fold decrease in affinity” value was > 500 fold.

B5: 94C4 mutant D101Q (VH) (antibody, V domains shown)
VH: QSLEESGGGLVQPEGSLTLTCKASGFDFSSNAMCWVRQAPGKGLEWIACISSASSGSSGSTYYASWAKGRFTISKTSSTTVTLQMTSLTAADMATYFCARQGYDLWGPGTLVTVSS
VL: QVLTQTPSSVSAAVGGTVTISCQSSPSVYNNYLSWFQQKPGQSPKLLIYRVSTLASGVPSRFSGSGSGTQFTLTISGVQCDDAATYYCAGGYDSASDTYVFGGGTEVVVK
Take B5: in test [1], the “Fold decrease in affinity” value was > 500 fold.

B6: 94C4 mutant S52K (VH) (antibody, V domains shown)
VH: QSLEESGGGLVQPEGSLTLTCKASGFDFSSNAMCWVRQAPGKGLEWIACISKASSGSSGSTYYASWAKGRFTISKTSSTTVTLQMTSLTAADMATYFCARDGYDLWGPGTLVTVSS
VL: QVLTQTPSSVSAAVGGTVTISCQSSPSVYNNYLSWFQQKPGQSPKLLIYRVSTLASGVPSRFSGSGSGTQFTLTISGVQCDDAATYYCAGGYDSASDTYVFGGGTEVVVK
With B6, the “Fold decrease in affinity” value in test [1] is > 500 fold.

B7: 94C4 mutant D101M (VH) (antibody, V domains shown)
VH: QSLEESGGGLVQPEGSLTLTCKASGFDFSSNAMCWVRQAPGKGLEWIACISSASSGSSGSTYYASWAKGRFTISKTSSTTVTLQMTSLTAADMATYFCARMGYDLWGPGTLVTVSS
VL: QVLTQTPSSVSAAVGGTVTISCQSSPSVYNNYLSWFQQKPGQSPKLLIYRVSTLASGVPSRFSGSGSGTQFTLTISGVQCDDAATYYCAGGYDSASDTYVFGGGTEVVVK
For B7, the “Fold decrease in affinity” value in test [1] is > 500 fold.

B8: 98G10 mutant G55H (VH) (antibody, V domains shown)
VH: QEQLEESGGDLVKPEGSLTLTCTASGFSFSASYWICWVRQAPGKGLEWIACIYGHSSGSAYYASWAKGRFTISKTSSTTVTLQMTSLTAADTATYFCARAGYYNYGSAGDIYPSSFKLWGPGTLVTVSS
VL: DIVMTQTPASVEAAVGGTVTINCQASQSISTALAWYQQKPGQPPKLLIYTASKVASGVPSRFSGSGSGTQFTLTISDLECADAATYYCQNYYYSSSSITFGGGTEVVVK
Take B8: the “Fold decrease in affinity” value in test [2] was > 100 fold.

B9: 39B4 mutant A107Q (VH) (antibody, V domains shown)
VH: QEQLVESGGGLVQPEGSLTLTCTASGFSFSSSYWICWVRQAPGKGLEWIACIYAGTSGSTYYASWAKGRFTISKTSSTTVDLQMNSLTAADTATYFCARAGYYTYGQGVYIYPSSFKLWGPGTLVTVSS
VL: DVVMTQTPASVEAAVGGTVTIKCQASESIGNALAWYQQKPGQPPKLLIYSASNLASGVPSRFSGSGSGTQFTLTISDLECADAATYYCQSYYYSSSSITFGGGTEVVVK
With B9, the “Fold decrease in affinity” value in test [3] is > 500 fold.

B10: 98G10 mutant S56N (VH) (antibody, V domains shown)
VH: QEQLEESGGDLVKPEGSLTLTCTASGFSFSASYWICWVRQAPGKGLEWIACIYGGNSGSAYYASWAKGRFTISKTSSTTVTLQMTSLTAADTATYFCARAGYYNYGSAGDIYPSSFKLWGPGTLVTVSS
VL: DIVMTQTPASVEAAVGGTVTINCQASQSISTALAWYQQKPGQPPKLLIYTASKVASGVPSRFSGSGSGTQFTLTISDLECADAATYYCQNYYYSSSSITFGGGTEVVVK
As for B10, the “Fold decrease in affinity” value in test [2] was > 500 fold.

B11: 39B4 mutant A107R (VH) (antibody, V domains shown)
VH: QEQLVESGGGLVQPEGSLTLTCTASGFSFSSSYWICWVRQAPGKGLEWIACIYAGTSGSTYYASWAKGRFTISKTSSTTVDLQMNSLTAADTATYFCARAGYYTYGRGVYIYPSSFKLWGPGTLVTVSS
VL: DVVMTQTPASVEAAVGGTVTIKCQASESIGNALAWYQQKPGQPPKLLIYSASNLASGVPSRFSGSGSGTQFTLTISDLECADAATYYCQSYYYSSSSITFGGGTEVVVK
Consider B11, for which the “Fold decrease in affinity” value in test [3] is > 500 fold.

B12: 39B4 mutant G106Y (VH) (antibody, V domains shown)
VH: QEQLVESGGGLVQPEGSLTLTCTASGFSFSSSYWICWVRQAPGKGLEWIACIYAGTSGSTYYASWAKGRFTISKTSSTTVDLQMNSLTAADTATYFCARAGYYTYYAGVYIYPSSFKLWGPGTLVTVSS
VL: DVVMTQTPASVEAAVGGTVTIKCQASESIGNALAWYQQKPGQPPKLLIYSASNLASGVPSRFSGSGSGTQFTLTISDLECADAATYYCQSYYYSSSSITFGGGTEVVVK
Consider B12, for which the “Fold decrease in affinity” value in test [3] is > 500 fold.

B13: 39B4 mutant G106R (VH) (antibody, V domains shown)
VH: QEQLVESGGGLVQPEGSLTLTCTASGFSFSSSYWICWVRQAPGKGLEWIACIYAGTSGSTYYASWAKGRFTISKTSSTTVDLQMNSLTAADTATYFCARAGYYTYRAGVYIYPSSFKLWGPGTLVTVSS
VL: DVVMTQTPASVEAAVGGTVTIKCQASESIGNALAWYQQKPGQPPKLLIYSASNLASGVPSRFSGSGSGTQFTLTISDLECADAATYYCQSYYYSSSSITFGGGTEVVVK
Regarding B13, the “Fold decrease in affinity” value in test [3] is > 500 fold.

B14: 98G10 mutant S57K (VH) (antibody, V domains shown)
VH: QEQLEESGGDLVKPEGSLTLTCTASGFSFSASYWICWVRQAPGKGLEWIACIYGGSKGSAYYASWAKGRFTISKTSSTTVTLQMTSLTAADTATYFCARAGYYNYGSAGDIYPSSFKLWGPGTLVTVSS
VL: DIVMTQTPASVEAAVGGTVTINCQASQSISTALAWYQQKPGQPPKLLIYTASKVASGVPSRFSGSGSGTQFTLTISDLECADAATYYCQNYYYSSSSITFGGGTEVVVK
Take B14: the “Fold decrease in affinity” value in test [2] was > 500 fold.

B15: 98G10 mutant G58V (VH) (antibody, V domains shown)
VH: QEQLEESGGDLVKPEGSLTLTCTASGFSFSASYWICWVRQAPGKGLEWIACIYGGSSVSAYYASWAKGRFTISKTSSTTVTLQMTSLTAADTATYFCARAGYYNYGSAGDIYPSSFKLWGPGTLVTVSS
VL: DIVMTQTPASVEAAVGGTVTINCQASQSISTALAWYQQKPGQPPKLLIYTASKVASGVPSRFSGSGSGTQFTLTISDLECADAATYYCQNYYYSSSSITFGGGTEVVVK
As for B15, the “Fold decrease in affinity” value in test [2] was > 100 fold.

B16: 98G10 mutant S57Q (VH) (antibody, V domains shown)
VH: QEQLEESGGDLVKPEGSLTLTCTASGFSFSASYWICWVRQAPGKGLEWIACIYGGSQGSAYYASWAKGRFTISKTSSTTVTLQMTSLTAADTATYFCARAGYYNYGSAGDIYPSSFKLWGPGTLVTVSS
VL: DIVMTQTPASVEAAVGGTVTINCQASQSISTALAWYQQKPGQPPKLLIYTASKVASGVPSRFSGSGSGTQFTLTISDLECADAATYYCQNYYYSSSSITFGGGTEVVVK
For B16, the “Fold decrease in affinity” value in test [2] is > 500 fold.

B17: 98G10 mutant S57R (VH) (antibody, V domains shown)
VH: QEQLEESGGDLVKPEGSLTLTCTASGFSFSASYWICWVRQAPGKGLEWIACIYGGSRGSAYYASWAKGRFTISKTSSTTVTLQMTSLTAADTATYFCARAGYYNYGSAGDIYPSSFKLWGPGTLVTVSS
VL: DIVMTQTPASVEAAVGGTVTINCQASQSISTALAWYQQKPGQPPKLLIYTASKVASGVPSRFSGSGSGTQFTLTISDLECADAATYYCQNYYYSSSSITFGGGTEVVVK
Turning to B17, the “Fold decrease in affinity” value in test [2] is > 500 fold.

B18: 98G10 mutant S56P (VH) (antibody, V domains shown)
VH: QEQLEESGGDLVKPEGSLTLTCTASGFSFSASYWICWVRQAPGKGLEWIACIYGGPSGSAYYASWAKGRFTISKTSSTTVTLQMTSLTAADTATYFCARAGYYNYGSAGDIYPSSFKLWGPGTLVTVSS
VL: DIVMTQTPASVEAAVGGTVTINCQASQSISTALAWYQQKPGQPPKLLIYTASKVASGVPSRFSGSGSGTQFTLTISDLECADAATYYCQNYYYSSSSITFGGGTEVVVK
Take B18: the “Fold decrease in affinity” value in test [2] was > 500 fold.

B19: 98G10 mutant G55W (VH) (antibody, V domains shown)
VH: QEQLEESGGDLVKPEGSLTLTCTASGFSFSASYWICWVRQAPGKGLEWIACIYGWSSGSAYYASWAKGRFTISKTSSTTVTLQMTSLTAADTATYFCARAGYYNYGSAGDIYPSSFKLWGPGTLVTVSS
VL: DIVMTQTPASVEAAVGGTVTINCQASQSISTALAWYQQKPGQPPKLLIYTASKVASGVPSRFSGSGSGTQFTLTISDLECADAATYYCQNYYYSSSSITFGGGTEVVVK
For B19, the “Fold decrease in affinity” value in test [2] is > 100 fold.
